For 4 substances, response results are on record in paper PMC9969015.

In this assay the target is S-RBD protein with C-terminal human Fc-tag (receptor-binding domain of SARS-CoV-2 S protein). The experiment in a line: flow cytometry on cells. Conditions: 100 μg/ml S-RBD, 1 mM Mn2+, β1-KO 293 T cells, read off a plot. On the technique in general: In flow cytometry, cells or beads pass a laser one at a time.

On to “wild-type α4β1 integrin expressed in β1-KO 293 T cells (from UniProt P13612;P05556) β1:D130A”, for which the response (parent: est. 1.5) is 0.95 relative MFI.
“wild-type α4β7 integrin expressed in β1-KO 293 T cells (from UniProt P13612;P26010) β7:D119A”: the response (parent: est. 2.0) was found to be 1.2 relative MFI.
“wild-type α5β1 integrin expressed in β1-KO 293 T cells (from UniProt P08648;P05556) β1:D130A”: under “parent: est. 1.2”, the response stood at 0.93 relative MFI.
Turning to “wild-type αLβ2 integrin expressed in β1-KO 293 T cells (from UniProt P20701;P05107) αL:D137A”, the response (parent: est. 1.3) was found to be 0.97 relative MFI.
